Reference: patent publication US9827216B2, “Nutritional support to prevent and/or mitigate bone marrow toxicity from a cancerous tumor” (Nestec S.A., priority 2008, dated 2017)

Experiments:
[1] = test system: red blood cell, white blood cell and immune cell populations; experiment: Haematological evaluation and flow cytometric analysis, test diets with chemotherapy (Example 2); format: in vivo, mice
Description: The animals were distributed into 7 different group diets. There was a control group that received the diet AIN 93 for adult rodents (maintenance). Test diets were administered in doses appropriate to the animal model: (a) Ctrl diet were supplemented with 1% (w/w) L-arginine, (b) 25% of the protein was replaced by glutamine, (c) 1% (w/w) L-citrulline, (d) 1 g/Kg body weight with active hexose correlated compound, (e) 20 mg/day of RNA nucleotides and (f) 25 mg/day of lactoferrin. […] Control animals without chemotherapeutic treatment were run in parallel for all tested diets. Body weight was assessed every two days. Blood samples were obtained at day 2, 4 and 10 after the chemo-treatment and at sacrifice (14 or 28 days). An autopsy was performed and tumor mass was assessed.

immune cells = experiment: Nutritional intervention on immune cells in tumor burdened animals with and without chemotherapy (FIG. 11); format: in vivo
Description: FIG. 11 illustrates a graph of the effect of nutritional intervention on immune cells in tumor burdened animals with and without chemotherapy in accordance with an embodiment of the present disclosure.

B1: lactoferrin: diet with 25 mg/day of lactoferrin (protein, UniProt P24627 20-708, looked up)
Lactotransferrin: APRKNVRWCTISQPEWFKCRRWQWRMKKLGAPSITCVRRAFALECIRAIAEKKADAVTLDGGMVFEAGRDPYKLRPVAAEIYGTKESPQTHYYAVAVVKKGSNFQLDQLQGRKSCHTGLGRSAGWIIPMGILRPYLSWTESLEPLQGAVAKFFSASCVPCIDRQAYPNLCQLCKGEGENQCACSSREPYFGYSGAFKCLQDGAGDVAFVKETTVFENLPEKADRDQYELLCLNNSRAPVDAFKECHLAQVPSHAVVARSVDGKEDLIWKLLSKAQEKFGKNKSRSFQLFGSPPGQRDLLFKDSALGFLRIPSKVDSALYLGSRYLTTLKNLRETAEEVKARYTRVVWCAVGPEEQKKCQQWSQQSGQNVTCATASTTDDCIVLVLKGEADALNLDGGYIYTAGKCGLVPVLAENRKSSKHSSLDCVLRPTEGYLAVAVVKKANEGLTWNSLKDKKSCHTAVDRTAGWNIPMGLIVNQTGSCAFDEFFSQSCAPGADPKSRLCALCAGDDQGLDKCVPNSKEKYYGYTGAFRCLAEDVGDVAFVKNDTVWENTNGESTADWAKNLNREDFRLLCLDGTRKPVTEAQSCHLAVAPNHAVVSRSDRAAHVKQVLLHQQALFGKNGKNCPDKFCLFKSETKNLLFNDNTECLAKLGGRPTYEEYLGTEYVTAIANLKKCSTSPLLEACAFLTR
Global lymphocyte population ([1]; following chemotherapy, supplemented diets): less depressed
leukocytic increase (white blood cell counts) ([1]; oxaliplatin treated animals, supplemented diet 25 mg/day): tended to be higher
toxicity (immune cells) (immune cells; chemotherapy treated group as compared to the control (FIG. 11)): less toxicity
immune cell population / concentration (immune cells; during the second phase (tumor-induced toxicity)): increase in their immune cell population
